What was measured:
Assay in all cases: SPR
[1] = target: 337_1_C08 variant VH K5T8 / VL 9
[2] = target: 337_1_C08 variant VH K5T8 / VL 6
[3] = target: 337_1_C08 variant VH H5E2 / VL 23
[4] = target: 337_1_C08 variant VH H5E2 / VL 2
[5] = target: 337_1_C08 variant VH K5E3 / VL 61

Monomeric human PD-1 rCD4 antigen (from UniProt Q15116 25-288) (receptor)
Kd [1]: 2.9 nM
Kd [2]: 9 nM
Kd [3]: 54 nM
Kd [4]: 30 nM
Kd [5]: 4.8 nM

From PMC6601556
